We go through two molecules from article PMC6168463, “Arc/Arg3.1 has an activity-regulated interaction with PICK1 that results in altered spatial dynamics” (Scientific Reports, 2018).

For data set [1], the target named is T1, His-PICK1 (human, UniProt Q9NRD5 1-415).
T1 construct: also called recombinant His-PICK1; source: E. coli BL21-Codon(+) DE3, pQE-80L, purified (HisTrap; SEC when needed)
Kind of data set: pull-down; soluble His-PICK1 (1, 5 and 10 µM) with GST-Arc (1 µM) or GST (1 µM) bound to glutathione-agarose, or resin alone; 20 mM HEPES pH 7.5, 100 mM NaCl, 1 mM DTT, 1 h at 4 °C; bound PICK1 from SDS-PAGE and BCA assay. The following applies: both partners purified.

Data set [2] has as its target T2, Arc-mCherry (mouse), Q9WV31.
T2 chain: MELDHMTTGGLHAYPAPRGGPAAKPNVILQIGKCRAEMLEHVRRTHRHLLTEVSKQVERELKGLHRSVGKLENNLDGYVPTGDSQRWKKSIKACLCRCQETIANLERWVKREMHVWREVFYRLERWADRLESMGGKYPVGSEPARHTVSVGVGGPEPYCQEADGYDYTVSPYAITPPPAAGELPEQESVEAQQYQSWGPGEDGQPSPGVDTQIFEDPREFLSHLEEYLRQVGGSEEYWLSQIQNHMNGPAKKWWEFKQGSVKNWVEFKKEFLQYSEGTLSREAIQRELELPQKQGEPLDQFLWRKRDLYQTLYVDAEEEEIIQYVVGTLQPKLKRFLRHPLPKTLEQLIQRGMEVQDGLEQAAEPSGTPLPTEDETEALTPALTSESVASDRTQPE
The experiment in a line: TIRF number and brightness (N&B) analysis; live SH-SY5Y cells, plasma membrane; brightness normalised to monomeric EGFP or mCherry; alone or co-transfected. The following applies: remark: other sources report otherwise.

The target is the same in data set [3]. Kind of data set: photon counting histogram (PCH) brightness analysis; live SH-SY5Y cells, cytosol; brightness normalised to monomeric EGFP or mCherry; co-transfected with the other construct or with the free fluorescent protein; 20 to 1,500 nM. The following applies: remark: other sources report otherwise.
Data set [4] deals with the molecule itself. Kind of data set: TIRF number and brightness (N&B) analysis; live SH-SY5Y cells, plasma membrane; brightness normalised to monomeric EGFP or mCherry; alone or co-transfected.

B1: GST-Arc (natural protein, mouse, UniProt Q9WV31 1-396, looked up)
chain: T2 chain
notes: Arc (activity-regulated cytoskeleton-associated protein, Arg3.1), mouse cDNA; also called Arg3.1; Activity-regulated cytoskeleton-associated protein; source: pGST.parallel 1 vector, purified (glutathione agarose resin, eluted with 50 mM glutathione; SEC when needed)
The stoichiometry N is a count of units in the complex or per binding partner. On to B1, for which, in data set [1], the binding result is recorded as “binds”. This molecule showed a stoichiometry N in data set [2] of 2. In data set [3], the normalized brightness (Norm. ε) was 1.37.

B2: EGFP-PICK1 (natural protein, human, UniProt Q9NRD5 1-415, looked up)
chain: MFADLDYDIEEDKLGIPTVPGKVTLQKDAQNLIGISIGGGAQYCPCLYIVQVFDNTPAALDGTVAAGDEITGVNGRSIKGKTKVEVAKMIQEVKGEVTIHYNKLQADPKQGMSLDIVLKKVKHRLVENMSSGTADALGLSRAILCNDGLVKRLEELERTAELYKGMTEHTKNLLRAFYELSQTHRAFGDVFSVIGVREPQPAASEAFVKFADAHRSIEKFGIRLLKTIKPMLTDLNTYLNKAIPDTRLTIKKYLDVKFEYLSYCLKVKEMDDEEYSCIALGEPLYRVSTGNYEYRLILRCRQEARARFSQMRKDVLEKMELLDQKHVQDIVFQLQRLVSTMSKYYNDCYAVLRDADVFPIEVDLAHTTLAYGLNQEEFTDGEEEEEEEDTAAGEPSRDTRGAAGPLDKGGSWCDS
notes: PICK1, 'a human variant of PICK1' ligated to EGFP at the N terminus; source: SH-SY5Y cells, transfected, in live cells; not shown: EGFP, N-terminal, kept
Regarding B2, the “stoichiometry N” value in data set [4] worked out at 2.
